This passage reports IC50 results from PMC5063714 (Journal of medicinal chemistry, 2016).

Common to all, as to assay: AlphaScreen or HTRF
(In general: In Alpha technology, singlet oxygen from a donor bead excites a nearby acceptor bead.)

Test [1] has as its target chromodomain of CBX8 (human) (UniProt Q9HC52).
Test [2] has as its target chromodomain of CBX5 (human).
Test [3] concerns the target T1, chromodomain of CBX7 (human, UniProt O95931 8-62).
T1 sequence (looked up): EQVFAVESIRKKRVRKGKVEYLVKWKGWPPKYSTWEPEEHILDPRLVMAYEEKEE

Test [4] concerns the target T2, chromodomain of CBX4 (human, UniProt O00257-1 8-65).
T2 sequence (looked up): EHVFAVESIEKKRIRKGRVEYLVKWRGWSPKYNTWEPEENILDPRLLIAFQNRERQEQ

In test [5] the target is T3, chromodomain of CDYL2 (human, UniProt Q8N8U2 1-75).
T3 sequence (looked up): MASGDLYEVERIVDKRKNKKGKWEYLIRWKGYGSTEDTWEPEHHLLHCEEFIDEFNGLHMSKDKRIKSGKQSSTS

For test [6], the target named is chromodomain of CBX5 (human). The source holds these as a separate data set.
chromodomain of CBX5 (human), sequence (Q9UN86 18-75): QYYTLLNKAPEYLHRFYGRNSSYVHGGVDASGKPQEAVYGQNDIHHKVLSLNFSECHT
The target of test [7] is T4, chromodomain of CDYL2 (human) (UniProt Q8N8U2).
T4 sequence: T3 sequence (looked up)

Test [8] addresses chromodomain of CBX8 (human) (UniProt Q9HC52). This is another data set of the same source.
Test [9] has as its target chromodomain of CBX4 (human) (UniProt O00257).
For test [10], the target named is chromodomain of CBX7 (human) (UniProt O95931).
Test [11] has as its target T1, chromodomain of CBX7. This is another data set of the same source.
Test [12] has as its target T2, chromodomain of CBX4. This is another data set of the same source.
Test [13] addresses T3, chromodomain of CDYL2. This is another data set of the same source.
Another test deals with T5, chromodomain of CBX8 (human, UniProt Q9HC52 8-61).
T5 sequence (looked up): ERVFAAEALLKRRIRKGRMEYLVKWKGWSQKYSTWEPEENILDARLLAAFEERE

Read-outs that look alike come from different tables or passages of the source. Square brackets hold non-standard residues; d marks the D form. Ends that are not written are not given here. * marks the point of attachment. Lys(Me3) = C[N+](C)(C)CCCC[C@H](N)C(=O)O; diethyl = not defined here; Bz = O=C(c1ccccc1)* Some results are limits rather than exact numbers.

One may read the IC50 as the concentration needed to halve the response being measured. A low value points to greater potency. Turning to compound 1 (UNC3866) (peptide), the IC50 in test [1] came out at 1.3 µM.
For the molecule {4‑tBu‑Bz}-F(CH2NH2)ALK(diethyl)S-OMe (reading uncertain) [compound 47], the IC50 with chromodomain of CBX5 [2] turned out to be 53 µM; in the test with chromodomain of CBX7 [3], 0.063 µM; in the test with chromodomain of CBX4 [4], 0.17 µM; with chromodomain of CDYL2 [5], 0.075 µM.
Regarding Bz-FAL[Lys(Me3)] (also: C-terminal R2 = -H in place of -CO-Ser-OMe (no Ser)) [compound 7], the IC50 is more than 60 µM in the test with chromodomain of CBX5 [6]; 37 µM in [7]; more than 60 µM in [8]; more than 60 µM in [9]; more than 60 µM in test [10].
For the molecule Bz-FAL[Lys(Me3)]S-OMe [compound 5], the half-maximal inhibitory concentration (IC50) with chromodomain of CBX5 [6] was found to be 49 µM; with chromodomain of CBX7 [11] it was 2.6 µM; with chromodomain of CBX4 [12], 6.9 µM; in the test with chromodomain of CDYL2 [13] it was 0.57 µM.
With {4‑tBu‑Bz}-FVLK(diethyl)S-OMe (reading uncertain) [compound 43], the IC50 was more than 60 µM in the test with chromodomain of CBX5 [2]; 3.1 µM with chromodomain of CBX7 [3]; 7.9 µM in the test with chromodomain of CBX4 [4]; 0.7 µM with chromodomain of CBX8; 0.75 µM in the test with chromodomain of CDYL2 [5].
In the case of {4‑tBu‑Bz}-F(CH2NHBoc)ALK(diethyl)S-OMe (reading uncertain) [compound 48], the IC50 with chromodomain of CBX5 [2] stood at 44 µM; with chromodomain of CBX7 [3] it was 0.056 µM; with chromodomain of CBX4 [4], 0.098 µM; with chromodomain of CDYL2 [5] it was 0.16 µM.

B1: compound 4 (peptide)
peptide: Bz-AL[Lys(Me3)]S-OMe
SMILES: COC(=O)[C@H](CO)NC(=O)[C@H](CCCC[N+](C)(C)C)NC(=O)[C@H](CC(C)C)NC(=O)[C@H](C)NC(=O)c1ccccc1
Consider B1, for which the IC50 with chromodomain of CBX5 [6] was more than 60 µM; in test [7], 16 µM; in [8] it was more than 60 µM; in [9] it was more than 60 µM; in test [10] it was more than 60 µM.
